Values of other authors, collected in article PMC4626678.

Target: Trypsin (Bos taurus) (UniProt P00760)
Sequence (P00760 149-246): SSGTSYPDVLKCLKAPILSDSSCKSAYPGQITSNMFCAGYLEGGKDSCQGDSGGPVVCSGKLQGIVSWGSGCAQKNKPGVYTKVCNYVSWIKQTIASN

Sequence of ShPI-1 (P31713 whole entry): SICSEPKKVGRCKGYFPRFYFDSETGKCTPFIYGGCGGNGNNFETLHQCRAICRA

## ShPI-1 (from UniProt P31713)
  Ki: 0.11 nM
